Test results reported in article PMC10141540.

T1: HU-B (Escherichia coli, UniProt P0ACF4 1-90)
T1 sequence: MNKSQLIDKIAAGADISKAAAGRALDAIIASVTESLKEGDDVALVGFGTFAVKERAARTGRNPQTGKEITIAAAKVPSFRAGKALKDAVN

B1: 4WJ DNA (structured_DNA)
DNA 1: CCCTATAACCCCTGCATTGAATTCCAGTCTGATAA
DNA 2: GTAGTCGTGATAGGTGCAGGGGTTATAGGG
DNA 3: AACAGTAGCTCTTATTCGAGCTCGCGCCCTATCACGACTA
DNA 4: TTTATCAGACTGGAATTCAAGCGCGAGCTCGAATAAGAGCTACTGT
B2: 20 bp dsDNA (dsDNA)
DNA 1: GTTCAATTGTTGTTAACTTG
DNA 2: CAAGTTAACAACAATTGAAC

How the values were obtained:
[1] = target: T1, HU-B; assay: EMSA
[2] = target: HU-A (Escherichia coli, UniProt P0ACF0 1-90); assay: EMSA
[3] = target: T1, HU-B; assay: condensate co-localization

Chain of HU-A (P0ACF0 whole entry): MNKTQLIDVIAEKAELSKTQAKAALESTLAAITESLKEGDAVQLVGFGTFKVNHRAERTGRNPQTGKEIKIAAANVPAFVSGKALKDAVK

Binder	binding result [1]	binding result [2]	binding result [3]
B1	binds	binds	–
B2	–	–	binds
